The values that follow come from US12527876B2, “Insulin-like growth factor-chemotherapeutic conjugate for treating myelodysplastic syndrome” (IGF Oncology, LLC, priority 2017, dated 2026).

The subject of series [1] is soluble IGF binding proteins. As to conditions: compared to wild-type IGF-1; Francis 1992, Tomas 1993, U.S. Pat. No. 4,876,242; cited from earlier work.
Series [2] in a line: Solubility of IGF-1R ligand-MTX conjugates. The series is classed as physicochemical. The note with it: phosphate buffered saline, or any neutral pH solution containing salt, over about 50 mM NaCl.
Series [3] deals with MDS. As to conditions: higher-risk patients, phase III trial; cited from earlier work.
For series [4] the following is noted: rat, in vivo.
On the set-up of series [5]: species or system Beagle dogs. The note with it: dog, in vivo. The source says:
Toxicokinetic (TK) parameters for free MTX were estimated from plasma concentration-time data arising from a 5-dose once weekly intravenous infusion study with insulin-like growth factor (IGF) MTX conjugate at low (0.5 μEq/kg), mid (2.0 μEq/kg) and high (4.0 μEq/kg) MTX equivalent dose levels. No consistent differences in the plasma levels of MTX were observed between animals of different genders and thus data from males and females were combined. Plasma levels of MTX increased with time both during and following a 1-hour intravenous infusion of the IGF-MTX conjugate. […] Both the AUC∞ and Cmax values were dose proportional. […] The pharmacokinetics of MTX following Day 29 of dosing were similar to those following Day 1 of dosing.
Following intravenous administration of the IGF-MTX conjugate in the dose range of 0.5-4.0 μEq/kg to Beagle dogs, serum levels of the IGF-MTX conjugate decreased quickly. There was no gender bias and an increase in serum exposure was observed on Day 29 compared to Day 1. […] The elimination of the IGF-MTX conjugate was marginally slower with successive doses, resulting in an increased plasma exposure. The elimination of the IGF-MTX conjugate preceded the development of maximal MTX concentrations.

Series [6] has as its system LNCaP cells. The series is described as follows: In vitro proliferation assay of LNCaP cells, Cell Counting Kit-8. As to conditions: highest tested concentration of 2000 nM, P=0.003, IGF-MTX = long-R3-IGF conjugate. Format: cell-based, human. The procedure: LNCaP cells were plated in a 96-well plate at 5,000 cells per well in RPMI+glutamine+10% FCS medium in 100 μl. After 24 hours, 100 μl fresh medium was added containing no drug (control), IGF-MTX or MTX at the indicated concentration. After 48 hours of further incubation, cell proliferation was assayed with the Cell Counting Kit-8 (Dojindo Molecular Technologies, Kumamoto, Japan) according to the manufacturer's instructions.
On the technique in general: Tetrazolium dyes change colour on reduction, which living cells bring about.

Series [7] deals with MCF7 cells. Briefly: In vitro proliferation assay of MCF7 cells, tritiated thymidine (Example 15). Format: cell-based, human. The procedure:
MCF7 was cultured in Eagle's Minimum Essential Medium, with 0.01 mg/ml human recombinant insulin, 10% fetal bovine serum, and pen/strep. For in vitro proliferation assays it was plated at 8,000 cells per well in a 96-well plate. […] After 5 more days, 1 uCi tritiated thymidine was added per well in 50 ul fresh medium. Six hours later the cells were harvested and radioactivity counted.

The subject of series [8] is MCF7 tumors. The series is described as follows: In vivo tumor growth inhibition, MCF7 xenografts. The arrangement: species or system nu/nu mice. As to conditions: IV days 0, 4 and 8; IGF-MTX (long-R3-IGF-1-methotrexate) 10 nmol of MTX/g, free MTX 40 nmol/g. The procedure: (§1) MCF7 cells (human breast adenocarcinoma cell line) were grown in Eagle's minimal essential medium supplemented with 0.1 mg/ml insulin and 10% FCS. The estrogen-dependent MCF7-L cell line was a gift from Deepali Sachdev of the University of Minnesota. MCF7-L cells were grown in modified IMEM medium (Invitrogen, Carlsbad, California, USA) supplemented with 0.1 mg/ml insulin. LNCaP cells (metastatic human prostatic adenocarcinoma) were grown in RPMI supplemented with glutamine and 10% FCS (Invitrogen, Carlsbad, California, USA). Cells were grown at 37° C. in a 5% CO2 humidified atmosphere. In each case, cells were grown to approximately two-thirds confluence, harvested by trypsinization, washed with rich medium and then washed twice with PBS and resuspended in phosphate buffered saline in BD matrigel matrix (Becton Dickinson, Franklin Lakes, New Jersey, USA). Cells were injected intradermally in mice on the back. An estrogen pellet (0.5 mg estradiol, 60-day release, Innovative Research of America, Sarasota, Florida, USA) was implanted subcutaneously between the shoulder blades two days before implanting MCF7 and MCF7-L cells. MCF7 and MCF7-L cells were implanted in 8-week-old female nu/nu mice. LNCaP cells were implanted in 8-week-old male nu/nu mice. The IGF-MTX conjugate was administered in 2 mM HCl, 1% glycerol. MTX was dissolved in PBS. […]

Series [9] has as its system MCF7-L tumors. Briefly: In vivo tumor growth inhibition, MCF7-L xenografts. Further details: species or system nu/nu mice. The note with it: day 22; IV days 0 and 5; IGF-MTX (long-R3-IGF-1-methotrexate) 10 nmol of MTX/g, free MTX 40 nmol/g. The procedure:
as §1, with “mice.” for “mice. LNCaP cells were implanted in 8-week-old male nu/nu mice. The IGF-MTX conjugate was administered in 2 mM HCl, 1% glycerol. MTX was dissolved in PBS.”
The second in vivo study was conducted using an estrogen-dependent MCF7 strain, MCF7-L. Tumor cells were implanted, and mice were monitored for tumor growth. […]

The test system of series [10] is MCF-7 tumor cells. The series is described as follows: In vitro cytotoxicity assay: inhibition of proliferation of MCF-7 cells, CCK-8 (Example 6). The series is classed as cell-based. The note with it: Homo sapiens, MCF7, read-out: IC50 (50% inhibition of cell proliferation).
Protocol: Day 0. Five-thousand MCF7 cells were plated per well in a 96-well test plate in 100 ul of rich media on day 0.
Day 1. A shadow plate was made for each test plate, with each well of the shadow plate containing media or 3× the intended final concentration of test agent in media in each well. As a negative control, media is used.
After making the shadow plate, 50 ul is transferred from each well of the shadow plate to the corresponding well of the test plate to generate the final concentrations of test agent in the wells of the test plate.
Day 5. Cell proliferation is determined by adding Dojindo CCK-8 reagent and incubating and measuring absorbance of the dye according to the manufacturer's instructions.
Series [11] concerns LNCaP cells. As to conditions: 48 hours, nM methotrexate groups, McTavish et al. 2009; cited from earlier work.
The subject of series [12] is LNCaP tumors. Briefly: In vivo tumor growth inhibition, LNCaP xenografts. The arrangement: species or system nu/nu mice. The note with it: LNCaP model, 8 nmol/g IGF-MTX vs. 50 nmol/g MTX. The procedure: as §1, with “back.” for “back. An estrogen pellet (0.5 mg estradiol, 60-day release, Innovative Research of America, Sarasota, Florida, USA) was implanted subcutaneously between the shoulder blades two days before implanting MCF7 and MCF7-L cells. MCF7 and MCF7-L cells were implanted in 8-week-old female nu/nu mice. LNCaP cells were implanted in 8-week-old male nu/nu mice. The IGF-MTX conjugate was administered in 2 mM HCl, 1% glycerol. MTX was dissolved in PBS.”
In a final in vivo study, prostate cancer LNCaP cells were implanted intradermally on day 0 in mice, which were then randomized to different treatment groups. […] Tumor size was much smaller in the groups treated with 8 nmol/g or 3.2 nmol/g of the IGF-MTX conjugate (dosage expressed as moles of each MTX molecule) compared to mice treated with higher doses of free MTX (50, 20 or 8 nmol/g). […]

Series [13] deals with T1, dihydrofolate reductase (DHFR) (Homo sapiens, UniProt P00374).
T1 construct: purchased Sigma-Aldrich
T1 sequence (P00374 1-187): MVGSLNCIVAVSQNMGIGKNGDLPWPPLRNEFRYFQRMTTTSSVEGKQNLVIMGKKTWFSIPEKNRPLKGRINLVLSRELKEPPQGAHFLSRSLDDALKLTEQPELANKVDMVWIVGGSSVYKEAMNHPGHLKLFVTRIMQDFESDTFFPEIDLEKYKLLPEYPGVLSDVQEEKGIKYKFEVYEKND
Briefly: Dihydrofolate reductase inhibition assay (Sigma-Aldrich kit). Format: biochemical. As to conditions: IC50 in nEq/L divided by MTX per IGF; read-out: inhibition constant in terms of protein concentration. The procedure:
The experiments were done with the dihydrofolate reductase assay kit from Sigma-Aldrich (St. Louis, MO, USA), according to the manufacturer's instructions. In the assay dihydrofolate reductase is mixed with pH 7.5 buffer. […] It was incubated for 30 seconds to allow inhibitor binding. Then NADPH is added to 50 uM final concentration, and then dihydrofolic acid is added to 60 uM final concentration. The reaction is monitored by measuring absorbance at 340 nm.

Consider “des(1-3)IGF1: lacks the first three residues of wild-type IGF-1, SEQ ID NO: 7 [reference compound]”, for which the “binding affinity to the soluble IGF binding proteins” value in series [1] is on record as “reduced binding affinity”.
Consider “insulin-MTX: insulin conjugated to methotrexate”, for which the solubility result in series [2] was “low solubility”.
For `Nc1ncn([C@@H]2O[C@H](CO)[C@@H](O)[C@H]2O)c(=O)n1` [azacitidine], in series [3], the patients with responses entry is given as “approximately 50%” and the “survival at 2 years of follow-up compared to conventional care” value is listed as “doubled”.
For the molecule IGF-MTX, in series [4], the decrease of platelets entry was “approximately 38%”, the “increase of mean spleen weight” value was 17 to 38%, the “mean increases or decreases in blood glucose” value was −1.8±7 to 7.5±3.4 and the reduction in neutrophils was 50-57%. The “reduction of WBC's” value in series [4] was 5-35%. Also, in series [5], the “apparent clearance of MTX” value was in the range of 5.67 to 7.67 mL/min/kg, the “apparent volume of distribution of the IGF-MTX conjugate” value was in the range of 0.07 to 0.20 L/kg, the “decrease of apparent clearance on Day 29 compared to Day 1” value is 25-50% and the “mean residence time of the IGF-MTX conjugate” value was in the range of 1.4 to 5.3 h. In addition, the “terminal half-life of the IGF-MTX conjugate” value in [5] is 2.5 to 4.6 h. Besides, in [5] (iv), the “apparent clearance of the IGF-MTX conjugate” value fell in the range of 0.33 to 0.83 mL/min/kg.
In the case of `CN(Cc1cnc2nc(N)nc(N)c2n1)c1ccc(C(=O)N[C@@H](CCC(=O)O)C(=O)O)cc1` [Methotrexate, methotrexate], in [6], the “inhibition of proliferation compared with IGF-MTX” value was “significantly greater inhibition than IGF-MTX”. The IC50 in series [7] (Homo sapiens, MCF7, parallel assay, free drug) was found to be 17 nM; in series [10] it was 88 nM. Also, the “IC50 of MTX lower than IGF-MTX” value in series [7] (MCF-7 cells in vitro) is “about 50 fold”. The “tumor growth over 12 days of observation” value in series [8] was “tumors continued to grow”. Besides, the tumor growth inhibition entry in series [9] is “inhibited about equally”.

B1: IGF132: variant of IGF-1, SEQ ID NO: 4, disclosed in U.S. Pat. No. 4,876,242 (protein)
chain: FVNQHLCGSHLVEALYLVCGDRGFYFNKPTGYGSSSRRAPQTGIVDECCFRSCDLRRLEMYCAPLKPAKSA
Consider B1, for which the “binding affinity to the soluble IGF binding proteins” value in [1] is “reduced binding affinity”.

B2: LR3IGF-MTX (conjugate)
chain: MFPAMPLSSLFVNGPRTLCGALVDALQFVCGDRGFYFNKPTGYGSSSRRAPQTGIVDECCFRSCDLRRLEMYCAPLKPAKSEA
B2: the solubility entry in [2] was “low solubility”. Moreover, the values for the IC50 in series [11] and in series [13] were about 1000 nM and 35 nM, respectively. Besides, in series [12], the “more effective than free MTX at fold lower molar dose of MTX groups” value is “at least 6 fold”.
